For experiment [1], the target named is secretin receptor (SCTR) (mouse (endogenous in mouse jejunal ICC-DMP)) (UniProt Q5FWI2).
Experiment [2] has the same target. The source holds these as a separate data set.
For experiment [3] the target is unchanged. This is another data set of the same source.

UniProt Q5FWI2, sequence (Q5FWI2 29-447): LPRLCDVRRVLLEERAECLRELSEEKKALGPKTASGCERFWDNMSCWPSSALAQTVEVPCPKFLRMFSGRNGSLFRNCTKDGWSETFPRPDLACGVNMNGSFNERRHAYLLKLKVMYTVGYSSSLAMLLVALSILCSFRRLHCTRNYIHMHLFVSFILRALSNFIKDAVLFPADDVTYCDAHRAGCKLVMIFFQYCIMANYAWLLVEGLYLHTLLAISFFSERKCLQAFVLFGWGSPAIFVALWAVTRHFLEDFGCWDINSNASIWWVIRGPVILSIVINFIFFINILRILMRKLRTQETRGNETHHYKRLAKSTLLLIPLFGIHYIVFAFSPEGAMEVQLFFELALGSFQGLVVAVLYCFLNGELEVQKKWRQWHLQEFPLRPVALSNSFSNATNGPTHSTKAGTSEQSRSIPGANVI

For HSDGTFTSELSRLREGARLQRLLQGLV [Secretin, human], in experiment [1], the Ca2+ transients in ICC-DMP (GCaMP6f), area of events, secretin 100 nM with TTX 1 uM was 0.57 μm·s and the Ca2+ transients in ICC-DMP (GCaMP6f), spatial spread, secretin 100 nM with TTX 1 uM worked out at 3.1 μm. Also, in experiment [2], the contractions of murine jejunal muscle strips, amplitude, secretin 100 nM with TTX 1 uM is 53.3 % of control; the contractions of murine jejunal muscle strips, area under the curve, secretin 100 nM with TTX 1 uM is 46.4 % of control; the spontaneous contractions of murine jejunal muscle strips, area under the curve, secretin 100 nM, control conditions was 45.6 % of control; the spontaneous contractions of murine jejunal muscle strips, contractile amplitude, secretin 100 nM, control conditions was 61.3 % of control. The cAMP level in ICC-DMP, FRET ratio (mTurquoise/Venus) of the CAMPER sensor, secretin 100 nM in experiment [3] was 108 % of control.

(Values after paper PMC12678811.)
